For the data set, the system named is Saccharomyces cerevisiae. Briefly: transcriptional activation domain activity (GFP:mCherry ratio, weighted mean of sorted bins, harmonized to initial dataset scale) (arbitrary fluorescence ratio units); higher = stronger transcriptional activation. To be noted: beta-estradiol 1 µM; induction time 4 h. The method in brief:
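For this assay, yeast diploids with a GFP reporter carried barcoded protein tiles at URA3, each fused to an estradiol-inducible synthetic transcription factor. Induction was a 1:5 dilution into SC with 1 uM beta-estradiol for 4 hours at 30 °C, followed by sorting into 8 bins by GFP:mCherry ratio and barcode sequencing. Tiles under 50 reads were dropped, and activation activity was calculated as the read-weighted mean of bin median fluorescence, averaged across barcodes and linearly mapped onto the initial dataset scale.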
As to “ILALNLSCFDTLCYCYGFWSRLFFYLLLLLMHHLHYHAIQNQSLDLFALHIYR”, the “transcriptional activation domain activity” value was found to be 78000.
To “GESNASLTKTLDSVLRNCFPQRSRMVLPVELPLDVFVCIVHFLLVRQFEYGQE” belongs 49700; to “DWYFDLPLWVFVCFFLFVFLTLMTFRTPSLTRYYCTVVYYLLGKWVGNCIVYT”, 18200; to “NSTVHNLIELIPLQQLCGFCCFSMRFVVFLDLLSTVVQPVIVGYIVYLIVILT”, 60200.
To “GQPTDASDGNATEGEVPEKPKKAKRKRVKKDAGEISDGGQPKSKPKKKRKPAK” belongs 36100; to “QQEGLKAELPHDFLFQHGTDDTMYNLTDDLSSSLSSSINSDMMTPNTYSSSFS”, 65000.
To “MKAEYITLINLLVHPSFVLWESPLPTLSFFFFFFFFLAWSPFRVFSLFVIPSL” belongs 50300.
Turning to “MLNNSSSFFVVVPIIYTLIHYLSMLFLFGCLIHLFPYIPTCILQLLLFLLYLY”, the “transcriptional activation domain activity” value stood at 44500.
Turning to “MLYSFRLLFILFFFLLEALSICRRCNVTGRGCFRDWDCWNACHQYAVSPRWGI”, the “transcriptional activation domain activity” value amounted to 41900.
To “HNTHKELSEQAVIDSFHVLCFSVGTIKNKPMIVYLVRQGPAIWLTMCTLNDLN” belongs 27200; to “HVLEYACSIAISRQQERRKRKAIRKSESLNALAKALLRLLSVFSTIRLASGQL”, 91500; to “GLLYILFCYQMNLKTHSLKVIALAEESVRLVHDRQSKRLWLPSITWKKWFRTG”, 74800.
Turning to “FLLLMFQGLDIFTPVIRVLHFRICLLLLLLIILLAVPLLFSYIIFSRPFLSLV”, the “transcriptional activation domain activity” value was 43900.
For “RMMREDYFPVARLFYCAFMLIHPHFEIPRFWQMGMHILHMLASLNYRPAILTM”, the “transcriptional activation domain activity” value was found to be 68400.
To “IQAEGLYQCRYRSYGIECIRYIFFFAMFGFLLKSEWYLSSAFFLGCLWHQLAF” belongs 25300.
To “YLHAVLCELQSSFNRKATTRSKLTHTPNLPEYTFPFAWLTLPFAAARRCTPAG” belongs 66600; to “VPYFHGLQPNNHYIHRLVVIFLQFAPSFIILTISYEGLFYFGFCLCLFCWILL”, 40300; to “MSRKIYCTPAFSTIHLLYLHNFFLIPIYYLQTSLRNILSKLSFCLILSILLLP”, 52900.
To “GSKIILVVEQCMCVVIWGCKVCFLLIFWKLAWGLRVRLLIKLVASYVVATFLV” belongs 65900; to “NLNFMPINNNYNNSGSNINNNDNVKLPSNFKNYYDPPMSSLDISMDVPDIFGS”, 94300; to “DAEYMCQYHGSLIGKHFKSLAQVMPFVIYGLVHEDVLHAWNIIGTLLVLLWHT”, 33500.
On to “VIIVLIFAVACHLAFGTSVVVFIWRTALLRDISKLSRTNIMPMCISQVVADVL”, for which the “transcriptional activation domain activity” value came out at 42900.
To “NKMKVHINKTNYELDSKEAVMAVLGTHRVEVSVLCLLYLVLRRHKKILDFASS” belongs 48200; to “HYFLVIMVLGMIELLRFPETRDAGVSLIRELLAFKFAKTSWDVVICNQLEKYL”, 41300.
For “MAKKASGSADKKTADKGDKKGKAKPTADDGEDKQSKGKGALKAATAVNVRHIL”, the “transcriptional activation domain activity” value was determined as 44600.
To “VVVILRMWAFCYRGSGHAHEMLHLLHNLICVWTKEFQYIVLQNWLANPQGKPK” belongs 58500.
To “MCAASSEGASLSPASSLQRGKACLACRRRKMRCDGARPTCGQCVRGNRVDDCE” belongs 21200; to “KIHLVNLLQISVLFVHRFIFGLVPLFEITTCAFFPLLISLWHLDYILFYVVMF”, 53800.
As for “ELILVQDLCGTFCCSMQFLVLMDLLGNVVLPSSVIFFYYLIFAYFFGYPVAMP”, the “transcriptional activation domain activity” value was 60100.
To “AQRHLLKCIVFRTEKSLINFVPELTEAKARDIRMLHFYPPALQRAALILLVKT” belongs 47500.

These data come from the supplement of paper PMC12636428.
